Laboratory results reported in patent US20120148607A1 (ARGEN X N V, published 2012).
Residue numbers refer to the chain shown, from its start.

What was measured:
c-Met SEMA ectodomain = biological target: T1, c-Met SEMA ectodomain (human, UniProt P08581 27-515); test: ELISA on immobilised c-Met ectodomains
T1 construct: domain: SEMA; also called SEMA domain

[1] = biological target: T2, c-Met SEMA-PSI ectodomain (human, UniProt P08581 25-562, limits assumed); test: ELISA on immobilised c-Met ectodomains
T2 construct: domain: SEMA-PSI
T2 sequence (P08581 25-562 limits assumed): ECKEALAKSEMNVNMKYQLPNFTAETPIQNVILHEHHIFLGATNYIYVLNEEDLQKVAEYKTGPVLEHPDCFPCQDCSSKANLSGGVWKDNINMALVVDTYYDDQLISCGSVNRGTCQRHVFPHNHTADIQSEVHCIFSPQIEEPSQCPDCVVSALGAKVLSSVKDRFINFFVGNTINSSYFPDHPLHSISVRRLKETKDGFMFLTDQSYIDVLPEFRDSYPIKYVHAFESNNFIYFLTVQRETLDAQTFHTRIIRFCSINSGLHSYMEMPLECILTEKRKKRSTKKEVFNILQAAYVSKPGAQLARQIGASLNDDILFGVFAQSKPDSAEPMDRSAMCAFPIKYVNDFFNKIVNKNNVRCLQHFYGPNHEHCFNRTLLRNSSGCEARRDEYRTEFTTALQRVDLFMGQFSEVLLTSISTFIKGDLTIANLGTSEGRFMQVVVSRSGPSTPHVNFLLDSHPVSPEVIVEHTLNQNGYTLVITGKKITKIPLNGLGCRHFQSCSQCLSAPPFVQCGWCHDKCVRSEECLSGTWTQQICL

[2] = biological target: T3, c-Met SEMA-PSI-IPT1-2 ectodomain (human, UniProt P08581 25-741, limits assumed); test: ELISA on immobilised c-Met ectodomains
T3 construct: domain: SEMA-PSI-IPT1-2; also called IPT1-2 (as recognised domain)
T3 sequence (P08581 25-741 limits assumed): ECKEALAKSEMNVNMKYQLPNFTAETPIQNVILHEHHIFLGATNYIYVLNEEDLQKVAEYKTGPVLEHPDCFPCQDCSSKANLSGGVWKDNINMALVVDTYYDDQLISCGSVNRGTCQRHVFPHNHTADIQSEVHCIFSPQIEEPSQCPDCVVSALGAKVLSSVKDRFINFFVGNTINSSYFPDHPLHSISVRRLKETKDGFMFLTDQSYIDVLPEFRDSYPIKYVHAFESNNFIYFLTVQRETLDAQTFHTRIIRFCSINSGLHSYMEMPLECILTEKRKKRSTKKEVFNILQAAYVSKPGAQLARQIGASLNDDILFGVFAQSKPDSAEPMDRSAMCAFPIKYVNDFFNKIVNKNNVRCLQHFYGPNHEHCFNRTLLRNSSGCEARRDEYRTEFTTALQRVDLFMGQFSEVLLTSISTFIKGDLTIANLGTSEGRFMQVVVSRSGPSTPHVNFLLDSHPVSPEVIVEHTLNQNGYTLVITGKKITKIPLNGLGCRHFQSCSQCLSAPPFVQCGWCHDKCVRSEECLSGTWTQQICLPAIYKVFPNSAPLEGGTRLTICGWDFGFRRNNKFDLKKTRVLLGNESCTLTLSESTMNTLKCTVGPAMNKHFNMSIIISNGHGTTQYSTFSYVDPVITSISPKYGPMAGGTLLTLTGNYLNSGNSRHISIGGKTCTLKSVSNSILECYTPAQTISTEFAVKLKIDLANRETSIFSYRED

c-Met IPT3-4 ectodomain = biological target: T4, c-Met IPT3-4 ectodomain (human, UniProt P08581 742-932, limits assumed); test: ELISA on immobilised c-Met ectodomains
T4 construct: domain: IPT3-4
T4 sequence (P08581 742-932 limits assumed): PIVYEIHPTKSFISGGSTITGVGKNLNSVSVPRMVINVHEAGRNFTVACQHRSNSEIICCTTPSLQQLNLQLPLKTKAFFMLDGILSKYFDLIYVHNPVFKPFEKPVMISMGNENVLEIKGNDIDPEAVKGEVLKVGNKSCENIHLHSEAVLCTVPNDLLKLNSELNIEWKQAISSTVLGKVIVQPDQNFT

[3] = biological target: T5, Decoy c-Met (extracellular domain of human c-Met) (human, UniProt P08581 25-932); test: binding ELISA, human c-Met (Decoy)
T5 construct: extracellular domain; also called Decoy Met; monomeric Decoy Met
T5 sequence (P08581 25-932): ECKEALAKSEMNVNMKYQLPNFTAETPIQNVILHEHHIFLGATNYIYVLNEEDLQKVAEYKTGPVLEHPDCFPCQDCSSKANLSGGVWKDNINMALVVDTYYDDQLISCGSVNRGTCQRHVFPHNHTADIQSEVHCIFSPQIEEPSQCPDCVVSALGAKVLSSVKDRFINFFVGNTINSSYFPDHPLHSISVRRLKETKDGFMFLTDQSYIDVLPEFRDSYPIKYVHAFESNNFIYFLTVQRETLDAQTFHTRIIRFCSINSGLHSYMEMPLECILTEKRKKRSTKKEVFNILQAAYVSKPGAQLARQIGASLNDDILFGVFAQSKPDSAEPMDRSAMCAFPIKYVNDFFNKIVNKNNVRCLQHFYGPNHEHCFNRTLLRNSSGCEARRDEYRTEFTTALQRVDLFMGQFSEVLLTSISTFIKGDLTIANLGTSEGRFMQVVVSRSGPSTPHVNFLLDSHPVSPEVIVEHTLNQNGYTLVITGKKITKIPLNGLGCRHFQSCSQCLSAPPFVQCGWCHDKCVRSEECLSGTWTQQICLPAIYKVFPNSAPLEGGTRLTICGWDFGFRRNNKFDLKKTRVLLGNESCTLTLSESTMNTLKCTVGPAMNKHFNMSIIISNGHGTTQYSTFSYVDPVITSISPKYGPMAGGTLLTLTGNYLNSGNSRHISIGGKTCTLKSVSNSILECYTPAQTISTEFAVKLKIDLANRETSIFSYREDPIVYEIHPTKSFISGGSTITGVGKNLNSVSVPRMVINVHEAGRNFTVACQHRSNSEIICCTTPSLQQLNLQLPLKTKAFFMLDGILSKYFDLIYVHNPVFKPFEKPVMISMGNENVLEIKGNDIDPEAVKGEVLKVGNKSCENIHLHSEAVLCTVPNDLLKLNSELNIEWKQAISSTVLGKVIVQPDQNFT

[4] = biological target: T6, Rhesus (Maccaca mulatta, US20090191580-5) c-Met ECD (Rhesus (Maccaca mulatta)); test: binding ELISA, Rhesus c-Met ECD immobilised (1 µg/ml)
T6 construct: extracellular domain; also called Rhesus c-Met ECD; Rhesus ECD
Description: Cross reactivity to Rhesus (Maccaca mulatta, US20090191580_{—}5) c-Met ECD and mouse c-Met (R&D systems cat no: 527-ME) was performed in a binding ELISA. Rhesus ECD was immobilized in PBS (1 μg/ml) on a 96-well maxisorb plate and incubated at 4° C. over night. After blocking with 1% casein in PBS, the antibodies in dilutions starting with 10 μg/ml were added and allowed to bind for 1 h at room temperature. The plate was washed and a goat anti-human Fcγ antibody (Jackson) was added and incubated for 1 h at room temperature. After washing, TMB was added and the plate read at 620 nm

[5] = biological target: T7, recombinant dimeric c-Met (R&D systems, 358-MT/CF) (human, UniProt P08581 25-932); test: SPR, Fab-containing periplasmic extract over immobilised c-Met, dissociation 2 min
T7 construct: Bought product; also called Fc-Met; recombinant c-Met
T7 sequence (P08581 25-932 limits assumed): as the sequence (P08581 25-932) above
Description: HGF-competing clones were sequenced in the VH and the VL regions and divided into VH families based on the sequence of the CDR3 in the VH. These VH families were further tested with Surface Plasmon Resonance (SPR) for dissociation (koff) and recognition of SEMA-PSI or the extracellular domain of c-Met (Decoy). Between 1000-2000 RU of dimeric c-Met, SEMA-PSI or Decoy c-Met was immobilised on a VIA chip with amine coupling in sodium acetate buffer (pH 4.5). The Fab-containing peris were added with a flow rate of 30 μl/min and Fabs were considered to be binding if an increase of the RU was observed. The koff was measured for 2 minutes for each sample.

[6] = biological target: T7, recombinant dimeric c-Met (R&D systems, …); test: competition ELISA: recombinant dimeric c-Met (100 ng/ml) captured by coated mouse anti-His antibody; antibody dilutions 30 min, then 25 ng/ml N-terminally biotinylated HGF (the competitor); strep-HRP, TMB, 620 nm; percent competition against the controls
Description: (§1) Competition with N-terminally biotinylated HGF for binding to immobilized c-Met was performed using an ELISA-based competition assay. Five μg/ml mouse anti-His antibodies (Serotech) was immobilized on a maxisorb plate and, after blocking with 1% casein in PBS for 2 h, 100 ng/ml recombinant dimeric c-Met was added and incubated for 1 h at room temperature. After washing, dilutions of the antibodies were added and allowed to bind to the captured c-Met for 30 minutes, before 25 ng/ml N-terminally biotinylated HGF (R&D systems, 294-HGN/CF) was added. Biotinylated HGF was incubated at room temperature for 1 h before washing. Horseradish-conjugated streptavidin (strep-HRP) was added and incubated for an additional hour. TMB was added and the plate read at 620 nm. An isotype control (hIgG1λ) was included as a control as well as murine 5D5 antibody. Competition was expressed as percentage competition as compared to the controls (strep-HRP only or hIgG1λ) and plotted against the concentration of antibodies. An IC₅₀ was calculated using GraphPad Prism (Table 10). Antibodies 13E6 and 20A11 only displaced HGF partially (about 50%), which may be related to the epitope these two mAbs recognize on the c-Met.

[7] = biological target: T5, Decoy c-Met (extracellular domain of …); test: SPR: mAb (0.5 µg/ml) kept 1 h at the given temperature, run over a CM-5 chip coupled with 15,000-17,000 RU Decoy c-Met; slope between 100 and 130 s at 30 µl/min in percent of the sample kept at 4 °C
[8] = biological target: T7, recombinant dimeric c-Met (R&D systems, …); test: SPR, periplasmic Fab over Fc-Met (around 3000 RU) on CM5 chip
Description: The clones were then tested for their dissociation constants by Surface Plasmon Resonance. Around 3000 RU of Fc-Met was immobilized directly onto a CM5 chip to obtain a clear binding profile from the periplasmic extracts. Clones with an improved off-rate were sent for sequencing.

[9] = biological target: T7, recombinant dimeric c-Met (R&D systems, …); test: competition ELISA, mAb against 25 ng/ml biotinylated HGF on captured dimeric c-Met
Description: as §1

T1 sequence (P08581 27-515): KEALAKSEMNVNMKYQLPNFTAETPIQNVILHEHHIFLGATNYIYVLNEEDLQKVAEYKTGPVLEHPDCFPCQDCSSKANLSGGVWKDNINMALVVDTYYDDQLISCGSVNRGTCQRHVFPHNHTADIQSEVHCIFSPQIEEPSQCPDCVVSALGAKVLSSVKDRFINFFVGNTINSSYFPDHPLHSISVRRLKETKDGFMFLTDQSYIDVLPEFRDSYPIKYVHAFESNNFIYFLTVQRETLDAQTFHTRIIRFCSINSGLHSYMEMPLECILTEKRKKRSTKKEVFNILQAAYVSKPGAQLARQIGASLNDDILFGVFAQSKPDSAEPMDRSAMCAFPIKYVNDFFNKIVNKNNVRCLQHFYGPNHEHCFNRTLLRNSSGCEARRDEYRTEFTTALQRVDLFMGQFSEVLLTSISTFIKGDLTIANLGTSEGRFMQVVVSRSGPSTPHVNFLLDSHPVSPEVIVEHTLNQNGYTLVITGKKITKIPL

B1: 20A11 mAb (antibody, V domains shown)
VH: QVQLVESGGGLVQPGGSLRLSCAASGFTFDDYAMSWVRQAPGKGLEWVSAISWNGSSTYYAESMKGRFTISRDNAKNTLYLQMNSLKSEDTAVYYCAKDLIGSHDYWGQGTQVTVSS
VL: QAVLTQPPSVSGTLGKTLTISCAGTSSDVGYGNYVSWYQQLPGTAPKLLIYAVSTRASGIPDRFSGSKSGNTASLTISGLQSEDEADYYCASYRSSNNYAFGAGTKLTVL
c-Met SEMA ectodomain
  binding result: no binding (tested: 1 µg/ml)
[1]
  binding result: no binding (tested: 1 µg/ml)
[2]
  binding result: no binding (tested: 1 µg/ml)
c-Met IPT3-4 ectodomain
  binding result: no binding (tested: 1 µg/ml)
[3]
  EC50: 4.3 nM
[4]
  EC50: 3.4 nM

B2: 20A11 Fab (Fab, V domains shown)
VH: B1 VH
VL: B1 VL
notes: Fab from the phage display library, tested as periplasmic extract
[5]
  koff: 0.0009 s⁻¹

B3: 40B8 Fab (Fab, V domains shown)
VH: EVQLVQPGAELRNPGASVKVSCKASGYTFTNYVIDWVRQAPGQGLEWMGRIDPENGGTRYAQKFQGRVTFTADTSTSTAYVELSNLRSEDTAVYYCARLEDYELAYDYWGQGTQVTVSS
VL: DIVMTQTPSSVTASAGEKVTINCKSSQSVLLSSNQKNYLAWYQQRLGQSPRLLIYWASTRESGVPDRFSGSGSTTDFTLTISSFQPEDAAVYYCQQGVSFPLTFGQGTKVELK
notes: as for B2
[5]
  koff: 0.0013 s⁻¹

B4: murine 5D5 antibody (antibody, V domains shown)
VH: QVQLQQSGPELVRPGASVKMSCRASGYTFTSYWLHWVKQRPGQGLEWIGMIDPSNSDTRFNPNFKDKATLNVDRSSNTAYMLLSSLTSADSAVYYCATYGSYVSPLDYWGQGTSVTVSS
VL: DIMMSQSPSSLTVSVGEKVTVSCKSSQSLLYTSSQKNYLAWYQQKPGQSPKLLIYWASTRESGVPDRFTGSGSGTDFTLTITSVKADDLAVYYCQQYYAYPWTFGGGTKLEIK
[6]
  IC50 (read off the curve): ~0.8 nM

B5: 34H7 mAb (antibody, V domains shown)
VH: ELQLVESGGALVQPGGSLRLSCVESGFTFSSYAMSWVRQAPGKGLEWVSGIYKGGGPKYANSVKGRFTISRDNAKNTLYLQMNSLKPEDTAVYYCAKSGYGSSLGDFGSWGQGTQVTVSS
VL: QAGLTQLSSMSGSPGQTVTITCTGSSSNIGGGYYLSWYQHLPGTAPKLLIYSNINRASGVPDRFSGSTSGISASLTITGLQAEDEADYYCSSWDDSVSGPVFGGGTSLTVL
[6]
  IC50 (read off the curve): ~0.2 nM

B6: 34H7 Fab (Fab, V domains shown)
VH: B5 VH
VL: B5 VL
notes: as for B2
[5]
  koff: 0.0016 s⁻¹

B7: 53E3 (antibody, V domains shown)
VH: QVQLQESGPGLVKPSQTLSLTCTVSGGSITTNYYYWSWIRQSPGKGLEWIGVIAYEGSTDYSPSLKSRVTISRDTSKNQFSLQLSSVTAEDTAVYYCARDVRVIATGWATANALDAWGQGTLVTVSS
VL: QSVLTQPPSVSGSPGQTVTISCAGTSSDVGYGNYVSWYQQLPGTAPKLMIFAVSYRASGIPDRFSGSKSGNTASLTISGLQSEDEADYYCASYRSSNNAAVFGGGTKLTVL
notes: also called germlined variant of 36C4
[7]
  binding result: binds

B8: 36C4 Fab (Fab, V domains shown)
VH: B7 VH with Q5V, T23A, I50M, E56D, V69T, T70S, A89P
VL: B7 VL with Q16K, M49L, S74F, K107H
notes: as for B2
[5]
  koff: 0.00064 s⁻¹

B9: 55A12-54E (antibody, V domains shown)
VH: B7 VH with Q5V, T30S, Q83K
VL: B7 VL with V3A, T17S, L41P, M49L, I60V, S82A
notes: as for B7
[7]
  binding result: binds

B10: 53A11 (antibody, V domains shown)
VH: B7 VH with E56D, G57A
VL: B7 VL with L41P, S74F
notes: as for B7
[7]
  binding result: binds

B11: 38H10 mAb (antibody, V domains shown)
VH: EVQLVQPGVELRNPGASVKVSCKASGYIFTMNSIDWVRQAPGQGLEWMGRIDPEDGGTKYAQKFQGRVTFTADTSTSTAYVELNSLRSEDTAVYYCARVDDYYLGYDYWGQGTQVTVSS
VL: EIVMTQSPSSVTASAGEKVTINCKSSQSVLWRSNQKNYLAWYQQRLGQSPRLLISWASIRESGVPDRFSGSGSTTDFTLTISSFQPEDAAVYYCQQGYSFPYTFGSGTRLEIK
[3]
  EC50: 0.19 nM
[4]
  EC50: 0.17 nM
[6]
  IC50 (read off the curve): ~0.03 nM

B12: 38H10 Fab (Fab, V domains shown)
VH: B11 VH
VL: B11 VL
notes: as for B2
[8]
  koff: 0.0005 s⁻¹
[5]
  koff: 0.0012 s⁻¹

B13: 12G4 mAb (antibody, V domains shown)
VH: QLQLVESGGGMAQPGGSLKLSCAASGFTFDDYAMTWVRQAPGKGLEWLSTISWNDINTYYAESMKDRFTISRDNAKNTLYLQMNSLESEDTAVYYCAKRRDNYYGTSGEYDYWGQGTQVTVSS
VL: QSALTQPPSVSGTLGKTVTISCAGTSSDIGNYNYVSWYQQLPGTAPKLLIYEVNKRPSGIPDRFSGSKSGNTASLSISGLQSEDEADYYCASYRSSNNVVFGGGTKLTVL
[3]
  EC50: 0.42 nM
[4]
  EC50: 0.34 nM
[9]
  IC50: 0.26 nM

B14: 20F1 mAb (antibody, V domains shown)
VH: EVQVQESGPGLVKPSQTLSLTCTVSGGSMTGNYYAWSWIRQPPGKGLEWMGVIAYDGSTYYSPSLKSRTSISRDTSKNQFSLQLSSVSPEDTAVYYCARGPGWYSGSRNDYWGQGTQVTVSS
VL: QSALTQPPSVSGSPGKTVTISCTGTNSDVGYGNYVSWYQQLPGMAPKLLIYDVNRRASGIADRFSGSKSGNTASLTISGLQSEDEGDYHCASYRSANNAVFGGGTHLFVL
[9]
  IC50: 0.36 nM
